Data as given in patent US20160326240A1 (published 2016).

Tests used:
hRGMa-His [1] = target: T1, hRGMa-His (human, UniProt Q96B86 48-422, limits assumed); assay: BIAcore
T1 construct: also called human RGMa (BIAcore); not shown: His tag
T1 sequence: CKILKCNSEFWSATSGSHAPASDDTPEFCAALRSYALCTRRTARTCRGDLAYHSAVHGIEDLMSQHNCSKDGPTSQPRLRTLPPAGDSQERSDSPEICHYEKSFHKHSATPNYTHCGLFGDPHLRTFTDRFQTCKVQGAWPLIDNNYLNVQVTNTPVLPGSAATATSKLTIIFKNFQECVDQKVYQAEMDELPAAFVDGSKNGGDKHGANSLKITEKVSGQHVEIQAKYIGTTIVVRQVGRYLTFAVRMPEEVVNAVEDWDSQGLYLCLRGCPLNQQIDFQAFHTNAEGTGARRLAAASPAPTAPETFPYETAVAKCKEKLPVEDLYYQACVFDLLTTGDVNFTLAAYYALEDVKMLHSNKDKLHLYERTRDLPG

hRGMa-His [2] = target: T1, hRGMa-His; assay: BIAcore; remark: listed apart in the source
Cyno RGMa-His = target: T2, Cyno RGMa-His (cynomolgus monkey, UniProt Q9N0A6 54-431, limits assumed); assay: BIAcore
T2 construct: also called cynomolgus (cyno) monkey RGMa (BIAcore); not shown: His tag
T2 sequence (looked up): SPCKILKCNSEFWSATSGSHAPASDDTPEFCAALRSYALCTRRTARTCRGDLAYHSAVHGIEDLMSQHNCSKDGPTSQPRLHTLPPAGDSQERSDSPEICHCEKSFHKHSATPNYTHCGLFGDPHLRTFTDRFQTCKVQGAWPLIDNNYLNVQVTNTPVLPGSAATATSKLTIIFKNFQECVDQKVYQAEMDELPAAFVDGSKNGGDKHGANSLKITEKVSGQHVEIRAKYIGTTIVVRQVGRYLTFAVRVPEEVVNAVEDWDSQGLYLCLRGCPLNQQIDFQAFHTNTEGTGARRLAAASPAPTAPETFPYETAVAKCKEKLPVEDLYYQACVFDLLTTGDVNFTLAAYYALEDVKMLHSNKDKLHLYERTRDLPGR

hRGMc-His [3] = target: T3, hRGMc-His (human, UniProt Q6ZVN8 36-400, limits assumed); assay: BIAcore binding
T3 construct: also called human RGMc; not shown: His tag
T3 sequence (looked up): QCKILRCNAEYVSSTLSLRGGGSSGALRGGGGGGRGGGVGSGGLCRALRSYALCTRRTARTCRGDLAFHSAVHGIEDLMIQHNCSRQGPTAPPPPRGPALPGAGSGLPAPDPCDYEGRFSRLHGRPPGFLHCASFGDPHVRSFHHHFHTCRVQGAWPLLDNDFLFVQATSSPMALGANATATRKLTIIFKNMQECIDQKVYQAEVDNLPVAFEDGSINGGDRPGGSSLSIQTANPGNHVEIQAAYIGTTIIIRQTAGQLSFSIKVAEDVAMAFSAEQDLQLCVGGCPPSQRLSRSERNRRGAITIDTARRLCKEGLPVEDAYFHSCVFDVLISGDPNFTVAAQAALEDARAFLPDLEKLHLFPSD

human RGMc = target: T4, human RGMc (human, UniProt Q6ZVN8 36-400, limits assumed); assay: ELISA
T4 construct: ELISA antigen for the yeast-derived antibodies; a human RGMc-Fc was used for negative selection but the ELISA antigen is not specified
T4 sequence (looked up): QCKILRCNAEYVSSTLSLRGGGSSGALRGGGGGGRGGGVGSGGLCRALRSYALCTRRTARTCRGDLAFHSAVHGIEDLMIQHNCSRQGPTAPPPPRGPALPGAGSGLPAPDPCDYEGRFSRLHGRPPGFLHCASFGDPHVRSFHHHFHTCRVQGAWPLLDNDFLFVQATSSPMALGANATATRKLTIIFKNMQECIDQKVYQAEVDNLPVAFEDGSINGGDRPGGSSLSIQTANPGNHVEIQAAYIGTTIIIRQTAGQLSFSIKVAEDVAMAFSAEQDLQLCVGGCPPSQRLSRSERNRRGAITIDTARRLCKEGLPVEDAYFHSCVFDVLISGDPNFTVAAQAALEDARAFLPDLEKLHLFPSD

hRGMc-His [4] = target: T3, hRGMc-His; assay: hRGMc-His ELISA
hRGMc-His [5] = target: T3, hRGMc-His; assay: direct binding ELISA (hRGMc-His)

| Binder | Kd (hRGMa-His [2]) | koff (hRGMa-His [2]) | kon (hRGMa-His [2]) | Kd (Cyno RGMa-His) | koff (Cyno RGMa-His) | kon (Cyno RGMa-His) | binding result (hRGMc-His [3]) | also measured |
| --- | --- | --- | --- | --- | --- | --- | --- | --- |
| AE12-1-F (antibody, V domains shown, AE12-1 variant, Cys of VL CDR-L3 replaced; IgG) VH: EVQLVQSGAEVKKPGASVKVSCKASGYTFTSHGISWVRQAPGQGLDWMGWISPYSGNTNYAQKLQGRVTMTTDTSTSTAYMELSSLRSEDTAVYYCARVGSGPYYYMDVWGQGTLVTVSS VL: QSALTQPRSVSGSPGQSVTISCTGTSSSVGDSIYVSWYQQHPGKAPKLMLYDVTKRPSGVPDRFSGSKSGNTASLTISGLQAEDEADYYCFSYAGTDTLFGGGTKVTVL | 1.4 nM | 3.9e-05 s⁻¹ | 27000 M⁻¹ s⁻¹ | 5.4 nM | 0.00025 s⁻¹ | 44000 M⁻¹ s⁻¹ | no binding | fold increased affinity vs parental AE12-1 (hRGMa-His [1]): 5 fold |
| AE12-1-H (antibody, V domains shown, AE12-1 variant; IgG) VH: EVQLVQSGAEVKKPGASVKVSCKASGYTFTSHGISWVRQAPGQGLDWMGWISPYSGNTNYAQKLQGRVTMTTDTSTSTAYMELSSLRSEDTAVYYCARVGSGPYYYMDVWGQGTLVTVSS VL: QSALTQPRSVSGSPGQSVTISCTGTSSSVGDSIYVSWYQQHPGKAPKLMLYDVTKRPSGVPDRFSGSKSGNTASLTISGLQAEDEADYYCHSYAGTDTLFGGGTKVTVL | 3.8 nM | 0.00012 s⁻¹ | 32000 M⁻¹ s⁻¹ | 13.4 nM | 0.00063 s⁻¹ | 47000 M⁻¹ s⁻¹ | no binding |  |
| AE12-1-I (antibody, V domains shown, AE12-1 variant; IgG) VH: EVQLVQSGAEVKKPGASVKVSCKASGYTFTSHGISWVRQAPGQGLDWMGWISPYSGNTNYAQKLQGRVTMTTDTSTSTAYMELSSLRSEDTAVYYCARVGSGPYYYMDVWGQGTLVTVSS VL: QSALTQPRSVSGSPGQSVTISCTGTSSSVGDSIYVSWYQQHPGKAPKLMLYDVTKRPSGVPDRFSGSKSGNTASLTISGLQAEDEADYYCISYAGTDTLFGGGTKVTVL | 4.5 nM | 0.00013 s⁻¹ | 30000 M⁻¹ s⁻¹ | 8.9 nM | 0.00087 s⁻¹ | 99000 M⁻¹ s⁻¹ | no binding |  |
| AE12-1-K (antibody, V domains shown, AE12-1 variant; IgG) VH: EVQLVQSGAEVKKPGASVKVSCKASGYTFTSHGISWVRQAPGQGLDWMGWISPYSGNTNYAQKLQGRVTMTTDTSTSTAYMELSSLRSEDTAVYYCARVGSGPYYYMDVWGQGTLVTVSS VL: QSALTQPRSVSGSPGQSVTISCTGTSSSVGDSIYVSWYQQHPGKAPKLMLYDVTKRPSGVPDRFSGSKSGNTASLTISGLQAEDEADYYCKSYAGTDTLFGGGTKVTVL | 8.8 nM | 0.0003 s⁻¹ | 34000 M⁻¹ s⁻¹ | 9.3 nM | 0.00047 s⁻¹ | 51000 M⁻¹ s⁻¹ | no binding |  |
| AE12-1-L (antibody, V domains shown, AE12-1 variant; IgG; also called AE-12-L) VH: EVQLVQSGAEVKKPGASVKVSCKASGYTFTSHGISWVRQAPGQGLDWMGWISPYSGNTNYAQKLQGRVTMTTDTSTSTAYMELSSLRSEDTAVYYCARVGSGPYYYMDVWGQGTLVTVSS VL: QSALTQPRSVSGSPGQSVTISCTGTSSSVGDSIYVSWYQQHPGKAPKLMLYDVTKRPSGVPDRFSGSKSGNTASLTISGLQAEDEADYYCLSYAGTDTLFGGGTKVTVL | 6.6 nM | 0.00025 s⁻¹ | 38000 M⁻¹ s⁻¹ | 10.1 nM | 0.00067 s⁻¹ | 62000 M⁻¹ s⁻¹ | no binding |  |
| AE12-1-V (antibody, V domains shown, AE12-1 variant; read as AE12-1-V from the order of the variants; IgG) VH: EVQLVQSGAEVKKPGASVKVSCKASGYTFTSHGISWVRQAPGQGLDWMGWISPYSGNTNYAQKLQGRVTMTTDTSTSTAYMELSSLRSEDTAVYYCARVGSGPYYYMDVWGQGTLVTVSS VL: QSALTQPRSVSGSPGQSVTISCTGTSSSVGDSIYVSWYQQHPGKAPKLMLYDVTKRPSGVPDRFSGSKSGNTASLTISGLQAEDEADYYCVSYAGTDTLFGGGTKVTVL | 5.9 nM | 0.00015 s⁻¹ | 25000 M⁻¹ s⁻¹ | 9.2 nM | 0.00099 s⁻¹ | 110000 M⁻¹ s⁻¹ | no binding |  |
| AE12-13 (antibody, V domains shown, kappa light chain) VH: EVQLQESGAGLLKPSETLSLTCAVYGGSFSGYYWSWIRQPPGKGLEWIGEINHSGSTNYNPSLKSRVTISVDTSKNQFSLKLSSVTAADTAVYYCARDDGAGVFDLWGRGTLVTVSS VL: DIQLTQSPSSLSASVGDGVTITCQASQDISNYLNWYQQKPGKAPKLLIYDASNLETGVPSRFSGSGSGTFFTLTINNLQPEDFATYYCQQSGNTPWTFGQGTKVEINR |  |  |  |  |  |  |  | binding result (human RGMc): binds |
| AE12-15 (antibody, V domains shown, lambda light chain) VH: EVQLVQSGAEVKEPGASVKVSCKASGYTFTDYYIQWVRQAPGHGLEWMGWINPKTGGTNYLQKFQGRVTMTRDTSTRTAYMELSSLRSDDTAFYYCVREDMNTVLATSWFDPWGQGTLVTVSS VL: SYELTQPPSVSVSPGQTARITCSGNQLGHKFASWYQQKPGQSPVVVIYEDKKRPSGIPERFSGSNSGNTATLTISGTQAMDEADYYCQVWDVITDHYVFGTGTKVTVLG |  |  |  |  |  |  |  | binding result (human RGMc): binds |
| AE12-23 (antibody, V domains shown, kappa light chain) VH: EVQLQESGPGLVKPSETLSLTCTVSGGSISGYYWSWIRQSPGKGLEWIGEIFHTGRTYYNPSLRSRLTISVDTSKNQFSLKLSSLTAADTAVYYCARDSAFGSFDYWGQGTLVTVSS VL: DIRVTQSPSSLSASVGDRVTITCQANEDISIYLNWYQQRPGKAPKLLIYDASNLETGVPSRFSGSGSGTDFTFTISSLQPEDFATYYCQQYHTYPFTFGGGTKVDIKR |  |  |  |  |  |  |  | binding result (human RGMc): binds |
| AE12-7 (antibody, V domains shown, lambda light chain) VH: EVQLVESGGGLVQPGGSLRLSCAASGFTSSSYAMTWVRQAPGKGLEWVSGISGSGESTYYADSVKGRFTISRDNSKNTLYLQMNSLRVEDTAIYYCARQGYGAHDYWGQGTLVTVSS VL: not shown |  |  |  |  |  |  |  | binding result (hRGMc-His [4]): binds |
| AE12-8 (antibody, V domains shown, lambda light chain) VH: EVQLLESGGGLVKPGGSLRLSCAASGFTFDDYAMHWVRQAPGKGLEWVSLISWDGGSTYYADSVKGRFTISRDNSKNSLYLQMNSLRAEDTALYYCAKDIPKVGGYSYGYGALGYWGQGTPVTVSS VL: SYELTQPPSVSVAPGQTARITCGGNNIGDISVHWYQQKSGQAPMLVVHDDSDRPSGIPERFSGSNSGSSATLTISRVEAGDEADYHCQVWDSGSGHHVFGTGTKVTVL |  |  |  |  |  |  |  | binding result (hRGMc-His [4]): binds |
| AE12-2 (antibody, V domains shown, lambda light chain) VH: EVQLVQSGAEVKKPGASVKVSCKASGYTFTSYDINWVRQATGQGLEWMGWMNPNSGNTGYAQKFQGRVTMTRNTSISTAYMELSSLRSEDTAVYYCARSTSLSVWGQGTLVTVSS VL: not shown |  |  |  |  |  |  |  | binding result (hRGMc-His [5]): no binding (tested: 100 nM) |
| AE12-3 (antibody, V domains shown, lambda light chain) VH: EVQLVESGGGLVQPGRSLRLSCAASGFTFDDYAMHWVRQAPGKGLEWVAVISYDGSNKYYADSVKGRFTISRDNSKNTLYLQMNSLRAEDTAVYYCARERVYSSGKEGYYYGMDVWGQGTMVTVSS VL: QSGLTQPPSVSAAPGQRVTISCTGSGSNIGAGYGVHWYQQLPATAPKILIYGDYNRPSGVPDRFSGSRSGTSASLTITGLQAEDEADYYCQSYDNSLRGVLFGGGTKLTVL |  |  |  |  |  |  |  | binding result (hRGMc-His [5]): no binding (tested: 100 nM) |
| AE12-5 (antibody, V domains shown, kappa light chain) VH: EVQLVQSGAEVKKPGASVKVSCKVSGHSLSELTIHWVRQAPGKGLEWMGGFDPEDGRGTYAPNFRGRVTMTEDTSTDTAYMELSGLRSEDAAVYYCATLLGEYDSYFDLWGRGTLVTVSS VL: DVVMTQSPDFQSVTPEDKVTITCRASQSIGSCLHWYQQKPDQSPKLLIKYASQSISGVPSRFSGSGSGTDFTLTINSLEAEDAATYYCHQSSSLPYTFGQGTKLEIK |  |  |  |  |  |  |  | binding result (hRGMc-His [5]): no binding (tested: 100 nM) |
